Numbering of substitutions follows the chain as printed. Names and notes keep the numbering of the source. Blank lines part the entries; values can stand above or below the binder they belong to.
Experiments:
[1] = target: T1, monovalent hVISTA-ECD (amino acids 32-193 of SEQ ID NO: 1 with a 7xHis tail) (human, UniProt Q9H7M9 33-193); experiment: SPR, Ab on Protein A, hVISTA 100-7.8 nM, pH 7.4
T1 construct: analyte of the SPR assays; also called huVISTA-His; human VISTA-ECD
Experimental: (§1) Further binding kinetic experiments were performed at various pHs on VISTA antibodies described herein by SPR as generally described in Example 9 above. Antibodies were normalized to 50 nM concentration in PBST pH 7.4 and captured on a Protein A CM5 chip (ID 4931) by injecting for 45 seconds at a 5 µL/min flow rate. An 8-point human VISTA titration ([…]) was prepared in PBST at pH 7.4, 6.9, 6.45, and 6.0. Titrations were injected over the captured antibodies for 180 seconds at 30 µL/min. Sensorgrams were fit to a 1:1 binding model in T200 evaluation software and the kinetic constants were reported.

[2] = target: T1, monovalent hVISTA-ECD (amino acids …); experiment: SPR 37C, Ab on Protein A, hVISTA-ECD 50-5 nM, pH 7.4, average
Experimental: Binding of several preparations of each of the ‘029 progeny clones and of the parent ‘029 antibodies, formatted as IgG1.3 antibodies, to human VISTA at pH 6.0 and 7.4 was measured by Surface plasmon resonance (SPR). SPR analysis was performed to measure koff and KD binding affinity measurements for VISTA Abs at acidic and neutral pHs using a Biacore® T100 instrument (GE Healthcare). […] Antibodies were diluted to 25 nM in PBST pH 7.4, and were captured across active biosensor flow cells at 5 ul/min for 60 seconds. A concentration series of 50 - 5 nM monovalent hVISTA-ECD (SEQ ID NO: 325) was prepared in pH 7.4 and 6.0 running buffers, and was injected over the captured antibodies at 40 ul/min to measure association and dissociation. Two 15 second injections of 10 mM glycine pH 1.5 were used to regenerate the Protein A capture surface between assay cycles. Rate constants ka (kₒₙ) and kd (koff) were derived from reference flow cell and 0 nM blank-subtracted sensorgrams, and were fit to a 1:1 binding model in Biacore® T200 Evaluation Software v.2.0. The affinity constant, KD was calculated as the ratio of rate constants koff/kₒₙ for each VISTA antibody.

[3] = target: T1, monovalent hVISTA-ECD (amino acids …); experiment: SPR, pH 7.4 over pH 6.0
Experimental: as §1
Each table reports the data at one of the four tested pHs (7.4, 6.9, 6.45, and 6.0, respectively). The 8-point hVISTA titration used in these assays was chosen to provide increased confidence in kinetic values reported at neutral pH conditions. A relatively stringent cutoff for non-binding was applied in this assay. Certain progeny of P1-061029 antibody (P1-068757, ‘759, ‘765, ‘771, and ‘775) show no binding to hVISTA at micromolar concentrations at pH 7.4, while ‘761 and ‘767 show no binding to hVISTA at 100 nM at pH 7.4 but do show binding to hVISTA at micromolar concentrations.

[4] = target: T1, monovalent hVISTA-ECD (amino acids …); experiment: SPR 37C, Ab on Protein A, hVISTA-ECD 50-0.2 nM, column headed pH 7 (running buffer pH 7.4 in the text)
Experimental: (§2) Surface plasmon resonance (SPR) analysis was performed to measure the association rates (defined as ka or kₒₙ, 1/Ms units), dissociation rates (defined as kd or koff, s⁻¹ units) and affinity constants (defined as KD, M units) for VISTA Abs at acidic and physiological pHs using a Biacore® T200 instrument (GE Healthcare). […] Antibodies were diluted to 20 nM in PBST pH 7.4, and were captured across active biosensor flow cells at 5 ul/min for 50 seconds. A concentration series of 50 - 0.2 nM monovalent hVISTA-ECD (SEQ ID NO: 325) was prepared in pH 7.4 and 6.0 running buffers, and was injected over the captured antibodies at 40 ul/min to measure association and dissociation. Two 15 second injections of 10 mM glycine pH 1.5 were used to regenerate the Protein A capture surface between assay cycles. Rate constants kₐ (kₒₙ) and kd (kₒff) were derived from reference flow cell and 0 nM blank-subtracted sensorgrams, and were fit to a 1:1 binding model in Biacore® T200 Evaluation Software v.2.0.

[5] = target: T1, monovalent hVISTA-ECD (amino acids …); experiment: SPR 37C, Ab on Protein A, hVISTA-ECD 50-0.2 nM, pH 6.0
Experimental: as §2

[6] = target: T1, monovalent hVISTA-ECD (amino acids …); experiment: SPR 37C, Ab on Protein A, hVISTA-ECD 50-5 nM, pH 6.0, average
Method in brief: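 Biacore T100 at 37C: antibodies (IgG1.3 format, 25 nM in PBST pH 7.4) captured on Protein A, then 50 - 5 nM monovalent hVISTA-ECD injected in pH 7.4 or 6.0 running buffer. Reference- and blank-subtracted sensorgrams fit to 1:1 model; KD = koff/kon.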

[7] = target: T1, monovalent hVISTA-ECD (amino acids …); experiment: SPR 37C, Ab on Protein A, hVISTA-ECD 50-5 nM, pH 6.0, average; ka printed Too fast, KD ND
[8] = target: T1, monovalent hVISTA-ECD (amino acids …); experiment: SPR 37C, Ab on Protein A, pH 6.0
[9] = target: T2, human VISTA on cells (293T cells ectopically expressing full-length human VISTA); AML3 cells and human … (human, UniProt Q9H7M9 33-311); experiment: cell-based or functional assay
T2 sequence: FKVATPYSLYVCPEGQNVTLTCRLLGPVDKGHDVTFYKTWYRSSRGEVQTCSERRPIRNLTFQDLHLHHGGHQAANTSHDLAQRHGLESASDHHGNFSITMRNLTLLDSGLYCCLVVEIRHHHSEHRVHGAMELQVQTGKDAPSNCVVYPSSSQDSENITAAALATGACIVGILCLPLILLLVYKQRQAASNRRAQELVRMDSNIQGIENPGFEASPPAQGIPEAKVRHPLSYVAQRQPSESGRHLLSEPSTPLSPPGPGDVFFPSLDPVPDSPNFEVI

[10] = target: T3, avidin (ThermoFisher Scientific catalog #21128) (UniProt P02701 25-152); experiment: SPR 25C, Ab on Protein A, pH 6 and pH 7.4
T3 construct: pI control protein
T3 sequence (P02701 25-152 limits assumed): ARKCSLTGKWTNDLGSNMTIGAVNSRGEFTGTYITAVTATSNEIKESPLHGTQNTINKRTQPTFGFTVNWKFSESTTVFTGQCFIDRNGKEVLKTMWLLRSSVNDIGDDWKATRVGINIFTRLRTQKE

[11] = target: T4, BSA (Calbiochem catalog #126593) (UniProt P02769 25-607); experiment: SPR 25C, Ab on Protein A, pH 6 and pH 7.4
T4 construct: pI control protein
T4 sequence (P02769 25-607 limits assumed): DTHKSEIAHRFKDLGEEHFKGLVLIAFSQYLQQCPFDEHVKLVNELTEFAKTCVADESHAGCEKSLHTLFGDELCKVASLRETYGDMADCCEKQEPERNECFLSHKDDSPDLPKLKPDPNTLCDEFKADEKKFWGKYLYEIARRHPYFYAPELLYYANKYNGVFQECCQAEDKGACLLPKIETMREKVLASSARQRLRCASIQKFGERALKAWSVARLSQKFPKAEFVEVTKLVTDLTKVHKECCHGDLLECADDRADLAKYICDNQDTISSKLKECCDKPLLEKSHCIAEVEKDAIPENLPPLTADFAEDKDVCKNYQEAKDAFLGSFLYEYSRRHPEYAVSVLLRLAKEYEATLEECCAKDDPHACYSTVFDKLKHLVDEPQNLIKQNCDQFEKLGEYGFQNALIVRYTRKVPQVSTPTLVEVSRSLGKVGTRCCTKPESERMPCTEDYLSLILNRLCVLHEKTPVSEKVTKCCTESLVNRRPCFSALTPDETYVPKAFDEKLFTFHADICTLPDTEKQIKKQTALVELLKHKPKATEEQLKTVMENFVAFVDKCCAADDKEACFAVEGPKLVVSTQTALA

[12] = target: T1, monovalent hVISTA-ECD (amino acids …); experiment: SPR, Ab on Protein A, hVISTA 100-7.8 nM, pH 7.4 (second row of this ligand)

B1: P1-061015.IgG1.3 (antibody, V domains shown)
VH: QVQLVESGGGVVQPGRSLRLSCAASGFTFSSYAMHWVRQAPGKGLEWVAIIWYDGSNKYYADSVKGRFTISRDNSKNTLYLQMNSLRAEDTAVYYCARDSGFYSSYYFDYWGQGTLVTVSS
VL: EIVLTQSPATLSLSPGERATLSCRASQSVSSSYLAWYQQKPGQAPRLLIYDASNRATGIPARFSGSGSGTDFTLTISSLEPEDFATYYCQQYNSYPYTFGQGTKLEIKR
notes: IgG1.3
Kd [1]: 5.12 nM
koff [1]: 0.00168 s⁻¹
kon [1]: 329000 M⁻¹ s⁻¹
Kd [2]: 8.8 nM
koff [2]: 0.002 s⁻¹
kon [2]: 230000 M⁻¹ s⁻¹
7.4 KD/ 6.0 KD [3]: 8.2
7.4 kd/ 6.0 kd [3]: 1.1
koff [4]: 0.0023 s⁻¹
koff [5]: 0.0014 s⁻¹
Kd [6]: 0.54 nM
koff [6]: 0.00095 s⁻¹
kon [6]: 1.8e+06 M⁻¹ s⁻¹

B2: P1-068740 (antibody, human IgG1, kappa, V domains shown)
VH: QVQLVESGGGVVQPGRSLRLSCAASGFTFSDYAMHWVRQAPGKGLEWVAIIWYDGSDKDYADSVKGRFTISRDNSKNTLYLQMNSLRAEDTAVYYCARDSGFYDSYYFDDWGQGTLVTVSS
VL: B1 VL
notes: IgG1.3
koff [7]: 0.047 s⁻¹

B3: P1-077875 (P1-068748 H31S H32Y) (antibody, V domains shown)
VH: B2 VH with D31S, D57N, K58D, D110Y
VL: EIVLTQSPATLSLSPGERATLSCRASQSVSSSYLAWYQQKPGQAPRLLIYDASNRATGIPARFSGSGSGTDFTLTISSLEPEDFATYYCQQYNSYPYTFGQGTKLEIK
fold improvement of off-rate against the '748 antibody [8]: ≤ 2 fold

B5: P1-077867 (P1-068748 H32Y) (antibody, V domains shown)
VH: B2 VH with D31H, D57N, K58D, D110Y
VL: B3 VL
fold improvement of off-rate against the '748 antibody [8]: ≤ 2 fold

B6: P1-077877 (P1-068748 H32Y D57K) (antibody, V domains shown)
VH: B2 VH with D31H, D57N, D110Y
VL: B3 VL
notes: the sister clones carry the VL of P1-061015
fold improvement of off-rate against the '748 antibody [8]: ≤ 2 fold

B9: VISTA.5 (mAb1) (antibody, V domains shown)
VH: AVQLQESGPGLVRPSQSLSLTCTVTDYSITSDYAWNWIRQFPGSKLEWLGFIGYSGNTNYNPSLESRISITRHTSKNQFFLHLNSMTTEDTATYYCARSLYGGSHWYFDVWGAGTTVTVSS
VL: DIVLTQSPASLAVSLGQRATISCRGSESVEYYGTILMQWYQQKPGQPPKLLIYGASNVESGVPARFSGSGSGTDFSLNIHPVEEDDIAMYFCQQSRKVPWTFGGGTKLEIK
EC50, AML3 viability (Cell Titer Glo) with anti-human IgG secondary antibody-drug conjugate [9]: 0.485 µg/mL

B10: P1-068767.IgG1.3 (antibody, V domains shown)
VH: EVQLVESGGGLVQPGKSLRLSCAASGFTLEDYAMHWVRQAPGKGLEWVSGIDWNSENIGYADSVKGRFTISRDNAKNSLYLQMNSLRTEDTALYYCAKVPGYSGGWIDAEDDWGQGTMVTVSS
VL: not shown
notes: IgG1.3; also called P1-068767-22; P1-068767 hIgG1.3f
binding result [10]: no binding (tested: 10 RU; analyte 100-10 nM)
binding result [11]: no binding (tested: 10 RU; analyte 100-10 nM)

More lines, now with the values ahead:

fold improvement of off-rate against the '748 antibody [8]: ≤ 2 fold
B4: P1-077883 (P1-068748 H31S D57K) (antibody, V domains shown)
VH: B2 VH with D31S, Y32H, D57N, D110Y
VL: B3 VL

fold improvement of off-rate against the '748 antibody [8]: ≤ 2 fold
B7: P1-077869 (P1-068748 D57K) (antibody, V domains shown)
VH: B2 VH with D31H, Y32H, D57N, D110Y
VL: B3 VL

fold improvement of off-rate against the '748 antibody [8]: ≤ 2 fold
B8: P1-077865 (P1-068748 H31S) (antibody, V domains shown)
VH: B2 VH with D31S, Y32H, D57N, K58D, D110Y
VL: B3 VL

Kd [1]: 2700 nM
koff [1]: 0.038 s⁻¹
kon [1]: 14000 M⁻¹ s⁻¹
Kd [12]: 1400 nM
koff [12]: 0.032 s⁻¹
kon [12]: 24000 M⁻¹ s⁻¹
7.4 KD/ 6.0 KD [3]: 258
7.4 kd/ 6.0 kd [3]: 14.2
B11: P1-72000 (P1-061029_F100fE_V102D) (antibody, V domains shown)
VH: B10 VH with E30D, D52N, E56A
VL: not shown
notes: also called P1-072000-3

— US20230192860A1 (Bristol-Myers Squibb, published 2023)
